Results: article PMC11390479, “Visualizing chaperonin function in situ by cryo-electron tomography” (Nature, 2024)
One block for each binder: values may come before it.

Experiments:
GroEL [1] = target: T1, GroEL (E. coli, UniProt P0A6F5 1-548); experiment: cryo-electron tomography with subtomogram averaging; in vitro reconstituted, isolated GroEL–GroES–MetK complexes with ADP–BeFx, imaged with the parameters of the in situ tomography; details: both partners purified
T1 construct: GroEL, E. coli chaperonin, 57 kDa subunit; two heptameric rings; One molecule for endogenous, pBAD33-expressed and purified GroEL (same untagged protein, same host); also called GroEL 14-mer; GroEL14; source: E. coli BL21(DE3) Gold: endogenous or overexpressed from pBAD33 (araBAD promoter), in cells or in lysate; copies: 14

GroEL [2] = target: T1, GroEL; experiment: co-IP; GroEL antibody on protein A Sepharose; lysate of MetK-overexpressing cells with apyrase (25 U/ml) to arrest the GroEL cycle; HMK buffer, 1 h; immunoblot for GroEL and MetK and LC-MS/MS (iBAQ); details: partners not purified
GroEL [3] = target: T1, GroEL; experiment: SEC; Superdex 200 3.2/300 GL; complex formed from 4 uM MetK heat denatured (60 °C, 15 min) with 1 uM GroEL 14-mer in buffer A (20 mM MOPS-NaOH pH 7.4, 200 mM KCl, 10 mM MgCl2, 5 mM DTT) with 30 mM NaF and 5 mM BeSO4, then 2 uM GroES 7-mer and 1 mM ATP; fractions by SDS-PAGE and mass spectrometry (iBAQ); details: both partners purified
[4] = target: the molecule itself; experiment: cryo-EM structure; single-particle analysis of in vitro reconstituted GroEL–GroES–MetK complexes with ADP–BeFx (non-cycling); control of GroEL and GroES treated identically without MetK

T1 sequence (P0A6F5 whole entry): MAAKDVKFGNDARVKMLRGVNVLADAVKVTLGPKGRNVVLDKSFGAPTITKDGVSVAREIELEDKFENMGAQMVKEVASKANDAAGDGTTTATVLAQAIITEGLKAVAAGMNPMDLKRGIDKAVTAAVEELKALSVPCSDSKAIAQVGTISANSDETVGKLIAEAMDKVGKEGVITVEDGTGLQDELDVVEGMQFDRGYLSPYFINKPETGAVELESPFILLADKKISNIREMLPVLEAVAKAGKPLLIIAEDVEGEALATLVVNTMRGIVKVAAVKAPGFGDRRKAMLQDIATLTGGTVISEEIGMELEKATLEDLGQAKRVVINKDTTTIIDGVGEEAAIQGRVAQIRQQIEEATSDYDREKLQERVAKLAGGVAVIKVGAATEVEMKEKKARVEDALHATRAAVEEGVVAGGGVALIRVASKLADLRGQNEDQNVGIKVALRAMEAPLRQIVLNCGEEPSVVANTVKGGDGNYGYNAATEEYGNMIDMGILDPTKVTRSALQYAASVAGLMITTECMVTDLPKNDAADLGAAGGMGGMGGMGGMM

percent of chambers with strong density of folded MetK (class I) (GroEL [1]): ~40%
stoichiometry N (GroEL [2]): ~1.3 MetK molecules per GroEL complex
stoichiometry N (GroEL [3]): ~1.2 MetK per GroEL 14-mer
B1: S-adenosylmethionine synthase (MetK) (enzyme, E. coli)
chain: MAKHLFTSESVSEGHPDKIADQISDAVLDAILEQDPKARVACETYVKTGMVLVGGEITTSAWVDIEEITRNTVREIGYVHSDMGFDANSCAVLSAIGKQSPDINQGVDRADPLEQGAGDQGLMFGYATNETDVLMPAPITYAHRLVQRQAEVRKNGTLPWLRPDAKSQVTFQYDDGKIVGIDAVVLSTQHSEEIDQKSLQEAVMEEIIKPILPAEWLTSATKFFINPTGRFVIGGPMGDCGLTGRKIIVDTYGGMARHGGGAFSGKDPSKVDRSAAYAARYVAKNIVAAGLADRCEIQVSYAIGVAEPTSIMVETFGTEKVPSEQLTLLVREFFDLRPYGLIQMLDLLHPIYKETAAYGHFGREHFPWEKTDKAQLLRDAAGLK
notes: S-adenosylmethionine synthase MetK, obligate GroEL substrate of E. coli; 379 C-alpha atoms compared with PDB 7LOO; core loop residues 97-111; In vitro the protein was heat denatured (60 °C, 15 min) in the presence of GroEL before encapsulation; it stands in the chaperonin as a single subunit; also called fMetK (folded MetK); source: E. coli BL21(DE3): overexpressed from pET22b (T7 promoter, …)

B2: GroES (complex, E. coli, UniProt P0A6F9 1-97, looked up)
chain: MNIRPLHDRVIVKRKEVETKSAGGIVLTGSAAAKSTRGEVLAVGNGRILENGEVKPLDVKVGDIVIFNDGYGVKSEKIDNEEVLIMSESDILAIVEA
notes: GroES, E. coli co-chaperonin, heptamer of 10 kDa subunits; also called GroES 7-mer; lid-shaped cofactor GroES; source: E. coli BL21(DE3) Gold: endogenous or overexpressed from pBAD33 (with groEL, araBAD promoter), in cells
binding result [4]: binds
